Assay results published in the supplement of paper PMC10567573.

B1: PTPN9 (parent)
chain: TQHLPRECLPENLGGYVKIDLATW

Variants of: B1
Assay: protein stability index of a GFP-peptide fusion (GPS, HEK-293T) (PSI 1-6); higher = more stable
Conditions: c terminus: a fixed tail appended
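Also: lentivirally expressed fusions sorted by FACS into six bins by GFP to DsRed ratio, PSI derived from sequencing read proportions per bin multiplied by bin number.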

Row | Variant | protein stability index
1 | TQHLPRECLYENLGGYVKIDLATW [P10Y] | 1.68
2 | TQHLPRECLPANLGGYVKIDLATW [E11A] | 1.97
3 | TQHLPRECLPCNLGGYVKIDLATW [E11C] | 1.52
4 | TQHLPRECLPDNLGGYVKIDLATW [E11D] | 1.84
5 | TQHLPRECLPFNLGGYVKIDLATW [E11F] | 1.8
6 | TQHLPRECLPGNLGGYVKIDLATW [E11G] | 1.41
7 | TQHLPRECLPHNLGGYVKIDLATW [E11H] | 1.48
8 | TQHLPRECLPINLGGYVKIDLATW [E11I] | 1.89
9 | TQHLPRECLPKNLGGYVKIDLATW [E11K] | 1.79
10 | TQHLPRECLPLNLGGYVKIDLATW [E11L] | 2.73
11 | TQHLPRECLPMNLGGYVKIDLATW [E11M] | 2.46
12 | TQHLPRECLPNNLGGYVKIDLATW [E11N] | 1.41
13 | TQHLPRECLPPNLGGYVKIDLATW [E11P] | 1.63
14 | TQHLPRECLPQNLGGYVKIDLATW [E11Q] | 1.71
15 | TQHLPRECLPRNLGGYVKIDLATW [E11R] | 1.62
16 | TQHLPRECLPSNLGGYVKIDLATW [E11S] | 2.04
17 | TQHLPRECLPTNLGGYVKIDLATW [E11T] | 1.45
18 | TQHLPRECLPVNLGGYVKIDLATW [E11V] | 1.58
19 | TQHLPRECLPWNLGGYVKIDLATW [E11W] | 1.56
20 | TQHLPRECLPYNLGGYVKIDLATW [E11Y] | 1.77
21 | TQHLPRECLPEALGGYVKIDLATW [N12A] | 2.41
22 | TQHLPRECLPECLGGYVKIDLATW [N12C] | 1.92
23 | TQHLPRECLPEDLGGYVKIDLATW [N12D] | 1.93
24 | TQHLPRECLPEELGGYVKIDLATW [N12E] | 3.02

Row | Variant | protein stability index
25 | TQHLPRECLPEFLGGYVKIDLATW [N12F] | 1.55
26 | TQHLPRECLPEGLGGYVKIDLATW [N12G] | 2
27 | TQHLPRECLPEHLGGYVKIDLATW [N12H] | 1.92
28 | TQHLPRECLPEILGGYVKIDLATW [N12I] | 1.79
29 | TQHLPRECLPEKLGGYVKIDLATW [N12K] | 1.8
30 | TQHLPRECLPELLGGYVKIDLATW [N12L] | 1.76
31 | TQHLPRECLPEMLGGYVKIDLATW [N12M] | 1.96
32 | TQHLPRECLPEPLGGYVKIDLATW [N12P] | 1.49
33 | TQHLPRECLPEQLGGYVKIDLATW [N12Q] | 1.91
34 | TQHLPRECLPERLGGYVKIDLATW [N12R] | 1.53
35 | TQHLPRECLPESLGGYVKIDLATW [N12S] | 2.21
36 | TQHLPRECLPETLGGYVKIDLATW [N12T] | 1.82
37 | TQHLPRECLPEVLGGYVKIDLATW [N12V] | 2.03
38 | TQHLPRECLPEWLGGYVKIDLATW [N12W] | 1.51
39 | TQHLPRECLPEYLGGYVKIDLATW [N12Y] | 2.52
40 | TQHLPRECLPENAGGYVKIDLATW [L13A] | 2.5
41 | TQHLPRECLPENCGGYVKIDLATW [L13C] | 1.55
42 | TQHLPRECLPENDGGYVKIDLATW [L13D] | 2.65
43 | TQHLPRECLPENEGGYVKIDLATW [L13E] | 3.46
44 | TQHLPRECLPENFGGYVKIDLATW [L13F] | 1.41
45 | TQHLPRECLPENGGGYVKIDLATW [L13G] | 1.98
46 | TQHLPRECLPENHGGYVKIDLATW [L13H] | 2.21
47 | TQHLPRECLPENIGGYVKIDLATW [L13I] | 1.91
48 | TQHLPRECLPENKGGYVKIDLATW [L13K] | 1.96

Row | Variant | protein stability index
49 | TQHLPRECLPENMGGYVKIDLATW [L13M] | 2.27
50 | TQHLPRECLPENNGGYVKIDLATW [L13N] | 2.58
51 | TQHLPRECLPENPGGYVKIDLATW [L13P] | 2.17
52 | TQHLPRECLPENQGGYVKIDLATW [L13Q] | 2.2
53 | TQHLPRECLPENRGGYVKIDLATW [L13R] | 2.43
54 | TQHLPRECLPENSGGYVKIDLATW [L13S] | 2.41
55 | TQHLPRECLPENTGGYVKIDLATW [L13T] | 2.28
56 | TQHLPRECLPENVGGYVKIDLATW [L13V] | 2.17
57 | TQHLPRECLPENWGGYVKIDLATW [L13W] | 2.54
58 | TQHLPRECLPENYGGYVKIDLATW [L13Y] | 1.91
59 | TQHLPRECLPENLAGYVKIDLATW [G14A] | 1.96
60 | TQHLPRECLPENLCGYVKIDLATW [G14C] | 1.55
61 | TQHLPRECLPENLDGYVKIDLATW [G14D] | 2.99
62 | TQHLPRECLPENLEGYVKIDLATW [G14E] | 2.15
63 | TQHLPRECLPENLFGYVKIDLATW [G14F] | 1.93
64 | TQHLPRECLPENLHGYVKIDLATW [G14H] | 1.91
65 | TQHLPRECLPENLIGYVKIDLATW [G14I] | 1.74
66 | TQHLPRECLPENLKGYVKIDLATW [G14K] | 1.68
67 | TQHLPRECLPENLLGYVKIDLATW [G14L] | 1.43
68 | TQHLPRECLPENLMGYVKIDLATW [G14M] | 2.03
69 | TQHLPRECLPENLNGYVKIDLATW [G14N] | 2.19
70 | TQHLPRECLPENLPGYVKIDLATW [G14P] | 2.38
71 | TQHLPRECLPENLQGYVKIDLATW [G14Q] | 1.96
72 | TQHLPRECLPENLRGYVKIDLATW [G14R] | 2.04

Row | Variant | protein stability index
73 | TQHLPRECLPENLSGYVKIDLATW [G14S] | 2.07
74 | TQHLPRECLPENLTGYVKIDLATW [G14T] | 1.46
75 | TQHLPRECLPENLVGYVKIDLATW [G14V] | 2.35
76 | TQHLPRECLPENLWGYVKIDLATW [G14W] | 2.02
77 | TQHLPRECLPENLYGYVKIDLATW [G14Y] | 2.45
78 | TQHLPRECLPENLGAYVKIDLATW [G15A] | 1.67
79 | TQHLPRECLPENLGCYVKIDLATW [G15C] | 2.36
80 | TQHLPRECLPENLGDYVKIDLATW [G15D] | 2.2
81 | TQHLPRECLPENLGEYVKIDLATW [G15E] | 2.26
82 | TQHLPRECLPENLGFYVKIDLATW [G15F] | 2.44
83 | TQHLPRECLPENLGHYVKIDLATW [G15H] | 1.76
84 | TQHLPRECLPENLGIYVKIDLATW [G15I] | 2.16
85 | TQHLPRECLPENLGKYVKIDLATW [G15K] | 2.63
86 | TQHLPRECLPENLGLYVKIDLATW [G15L] | 1.73
87 | TQHLPRECLPENLGMYVKIDLATW [G15M] | 2.81
88 | TQHLPRECLPENLGNYVKIDLATW [G15N] | 1.93
89 | TQHLPRECLPENLGPYVKIDLATW [G15P] | 2.63
90 | TQHLPRECLPENLGQYVKIDLATW [G15Q] | 1.38
91 | TQHLPRECLPENLGRYVKIDLATW [G15R] | 2.11
92 | TQHLPRECLPENLGSYVKIDLATW [G15S] | 1.92
93 | TQHLPRECLPENLGTYVKIDLATW [G15T] | 1.35
94 | TQHLPRECLPENLGVYVKIDLATW [G15V] | 1.62
